# According to US10752675B2, “Compounds for treating the remyelination blockade in diseases associated with the expression of HERV-W envelope protein” (GENEURO S.A., priority 2012, dated 2020):
# Entries after “also recorded” stand apart in the source; their conditions may differ.
# B1: GNbAC1: recombinant humanized anti-Env IgG4 monoclonal antibody comprising the CDRs of SEQ ID No. 1 to 6 (antibody, chains of the INN, looked up, V domains shown)
# VH: QVQLVQSGAEVKKPGSSVKVSCKASGYTFTDYEMHWVRQAPGQGLEWIGAVAPETGGTAYNQKFKGRATITADKSTSTAYMELSSLRSEDTAVYYCTSTVVPFAYWGQGTLVTVSS
# VL: QIQLTQSPSSLSASVGDRVTITCSASSSVSYMYWYQQKPGKAPKAWIYRTSNLASGVPSRFSGSGSGTDYTLTISSLQPEDFATYYCQQYQSLPLTFGGGTKVEIK
# Tests used:
# [1] = test system: MSRV-Env induced EAE in C57BL/6 mice; experiment: EAE clinical score, Example 3.A (EAE induced with MOG and MSRV-Env); assay type: in vivo; conditions: treatment from day 12 to day 29: GNbAc1 200 μg once, L-NAME 600 μg IP and SMT 1 mg IP every 4 days, DMF 1 mg daily in drinking water
# From the text: Pathogen free female C57BL/6 nice (6-8 weeks old) were purchased from the Charles River laboratories and maintained at the animal facilities for one week before immunization. One day before immunization, all mice have been weighed, and then evaluated on the Rotarod Test. Rotarod:
# (§1) Animals were weighed and clinically scored 5 days per week according to the following criteria: 0=no signs; 1=tail paralysis or hyper-reflex of hind limb(s) or unilateral hind limb weakness; 2=bilateral hind limb or forelimb weakness; 3=plus unilateral paralysis or major deficit; 4=complete hind limb or forelimb paralysis; 5=plus partial paralysis or major deficit of opposite limbs; 6=moribund or dead. These were adapted from standard criteria, in order to reflect the more rapid induction of brain and cervical cord lesions with this model.
# All groups of 6 (six) mice have been first injected s.c. in the neck on day 0 then in the dorsal flanks on day 7 and 14; with 200 μg of MOG/mouse+60 μg of MSRV-Env+IFA.
# For Groups G to H, the treatments with GNbAc1, L-NAME, SMT and DMF alone or together with GNbAc1 with the doses indicated below, have been initiated on day 12 post immunization when the progression of EAE clinical symptoms was already observed. GNbAc1 humanized antibody was administered once, but L-Name or SMT was administered every 4 days until termination of the study on day 29. Regarding Groups E and H, attributed for the treatment with DMF, we have previously determined the volume of daily water consumption by each mouse and it has been determined that (in our condition), each mouse consumed around 3.5 ml drinking water per day. Thus, on the basis of this measurement, a dose of 1 mg DMF+0.08% Methocel per mouse were added to 3.5 ml drinking water daily.
# 350 ng of pertussis toxin (PTX) per animal was injected (i.p.) in all groups on the same day following each immunogen injection, and replicated 2 days later, as usual in EAE protocols in order to facilitate the migration lymphocytes through the blood-brain barrier.
# [2] = Weight gain kinetics, Example 3.B; assay type: in vivo, mice
# Description: Mice were weighed 3 times a week on Monday, Wednesday and Friday during all experiment.
# All mice received three injections s.c. on the neck at DO, on the dorsal flank at D7 and D14. Here, mice from Group A were injected with 200 μg/mouse of MOG and IFA only, without Env, thus constituting a negative control group without EAE in the present series (ctrl −). The positive control group with untretated EAE in the present series is represented by Group B (ctrl +). Other groups were injected with 200 μg of MOG/mouse+MSRV-ENV (60 μg)+IFA, with treatments as indicated in the above summarized presentation. Treatments have been initiated on day 12 post immunization in their corresponding groups.
# The clinical signs score and weight were evaluated regularly as described above. The EAE clinical score kinetics over the study period are represented in FIGS. 22, 23 and 24. The weight curves, indicating relative weight gain compared to the day before first injection of immunogens, are presented in FIGS. 25, 26 and 27.
# [3] = test system: MSRV-Env induced EAE in C57BL/6 mice; experiment: EAE clinical score with intravenous MSRV-Env challenge, Example 3.B; assay type: in vivo
# From the text: as §1
# When not specified, all materials and methods were as described for Example 3A.
# All mice received three injections s.c. on the neck at DO, on the dorsal flank at D7 and D14. Here, mice from Group A were injected with 200 μg/mouse of MOG and IFA only, without Env, thus constituting a negative control group without EAE in the present series (ctrl −). The positive control group with untretated EAE in the present series is represented by Group B (ctrl +). Other groups were injected with 200 μg of MOG/mouse+MSRV-ENV (60 μg)+IFA, with treatments as indicated in the above summarized presentation. […]
# For Groups G and H receiving DMF, we have previously determined the volume of daily water consumption by each mouse and it has been realized that (in our condition), each mouse consumed around 3.5 ml drinking water per day. […]
# [4] = test system: MSRV-Env induced EAE in C57BL/6 mice; experiment: Rotarod test, Example 3.B (MSRV-Env induced EAE); assay type: in vivo; conditions: GNbAC1 500 μg/mouse given alone, all relevant speeds (16, 26, 29 rpm)
# Description: 1 day before each immunization, mice were transferred in their home cages, from the holding room to the experimental room. Mice were habituated to the experimental room for 15 min. Mice then received two trials at 10 increasing speed levels, ranging from 7 to 40 rpm. Individual delays before falling off the rotarod (for the two trials at each speed level) was recorded until 60 sec. Thus, training and performance on the Rotarod system were determined for each animal.
# The ROTAROD test results are expressed as kinetics of the mean of individual scores for each group with SEM indicated by bars, for each test day and for each test speed within the discriminating range for neuromotor impairment in present conditions (16 to 29 rpm).
# They are calculated for each individual mouse, for each test day and for each speed value, as the relative gain or loss of time on Rotarod (before falling), compared to the first test day at the same speed (D-7, before starting the disease induction in relevant groups). The value is calculated as “Time on Rotarod at dayX”−“Time at Day-7 for the same mouse at the same speed”. […]
molecule,measurement,setting,value
B1,EAE clinical score kinetics and recovery,[1],improve after its injection
same,EAE clinical score kinetics and recovery,[1]; listed as GNbAc1,diminished slightly
same,"weight gain over the study period, endpoint",[2]; GNbAC1 200 μg,endpoints equivalent to mock-controls
same,"weight gain over the study period, endpoint","[2]; GNbAC1 500 μg, alone or with DMF",best endpoint; also recorded: positive effect on the global health
same,EAE clinical score after iv MSRV-Env challenge (20 μg),"[3]; GNbAC1 200 μg at day 12, alone or with SMT (I.P. twice a week) or DMF (2 mg daily in drinking water)",transient clinical impairment
same,EAE clinical score after iv MSRV-Env challenge (20 μg),"[3]; GNbAC1 500 μg at day 12, alone or with SMT or DMF (2 mg daily in drinking water)",very efficient in conferring resistance; also recorded: best clinical efficiency
same,"Rotarod, improvement of neurological deficit",[4],significantly the most efficient product
